{"source": "the nanobody polyreactivity screen of Harvey et al. (2022)"}
{"assay": "yeast display, Sf9 membrane polyspecificity reagent, FACS + sequencing; frameworks hold sequencing errors", "method_in_brief": "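Polyreactivity labels are assigned by the sorting gate from which each nanobody was recovered. The gates were low and high (top ~1%), set on anti-HA fluorescence for expression and streptavidin fluorescence for reagent binding. Before sorting, galactose-induced (36–48 hours) yeast display cells were stained for 1 hour at 4 °C with 10% biotinylated, detergent-solubilized Sf9 membrane reagent.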"}
{"sequence": "QVQLVESGGGLVQAGGSLRLSCAASGSILVTYAMGWYRQAPGKERELVAAISRGGRTYYADSVKGRFTISRDNAKNTVYLQMNSLKPEDTAVYYCNADRVTFSWPVNYYWVDYWGQGTQVTVSS", "polyreactivity (PSR sort gate)": "high polyreactivity"}
{"sequence": "QVQLVESGGGLVQAGGSLRLSCAASGSILWENAKGWYRQAPGKERELVATISVSGGGTYYADSVKGRFTISRDNAKNTVYLQMNSLKPEDTAVYYCNARYGNESQGWEDYWGQGTQVTVSS", "polyreactivity (PSR sort gate)": "low polyreactivity"}
{"sequence": "QVQLVESGGGLVQAGGSLRLSCAASGSILWLYAMGWYRQAPGKERELVAAISGSGRTNYADSVKGRFTISRDNAKNTVYLQMNSQKPEDTAVYYCARVHGTSESKYYYWGQGTQVTVSL", "polyreactivity (PSR sort gate)": "low polyreactivity"}
{"sequence": "QVQLVESGGGLVQAGGSLRLSCAASGSILWLYVMGWYRQAPGKERELVATITSSGGSTYYADSVKGRFTISRDNAKNTVYLQMNSLKPEDTAVYYCAAQTYYSYDYWGQGTQVTVSS", "polyreactivity (PSR sort gate)": "low polyreactivity"}
{"sequence": "QVQLVESGGGLVQAGGSLRLSCAASGSILYNNAMGWYRQAPGKERELVAAIDLSTGSTYYADSVKGRFTISRDNAKNTVYLQMNSLKPEDSSVYYCAAGKPLGSSTKYRPYDYWGQGTQVTVSS", "polyreactivity (PSR sort gate)": "low polyreactivity"}
{"sequence": "QVQLVESGGGLVQAGGSLRLSCAASGSILYSYTMGWYRQAPGKERELVAAINRGGRTNYADSVKGRFTISRDNAKNTVYLQMNSLKPEDTAVYYCNTGIYAWSWRRAMDYWGQGTQVTVSS", "polyreactivity (PSR sort gate)": "high polyreactivity"}
{"sequence": "QVQLVESGGGLVQAGGSLRLSCAASGSILYVNAMGWYTQEPGKERELVAAITVSGGSTYYADSVKGRFTISRDNAKNTVYLQMNSLKPEDTAVFYCAAPALGNYFYGYDYCGQGTQVTVSS", "polyreactivity (PSR sort gate)": "low polyreactivity"}
{"sequence": "QVQLVESGGGLVQAGGSLRLSCAASGSILYVYAMGWYRQAPGKERELVATITGRVVSTNYADSVKGRFTISRDNAKNTVYLQMNSLKPEDTAVYYCAARTRRRRGEYDYWGQGTQVTVSS", "polyreactivity (PSR sort gate)": "high polyreactivity"}
{"sequence": "QVQLVESGGGLVQAGGSLRLSCAASGSILYVYAMGWYRQAPGKERELVATITGRVVSTNYADSVKGRLTISRDNAKNTVYLQMNSLKPEDTAVYYCAARTRRRRGEYDYWGQGTQVTVSS", "polyreactivity (PSR sort gate)": "high polyreactivity"}
{"sequence": "QVQLVESGGGLVQAGGSLRLSCAASGSINNRNAMGWYIQAPGKERELVAAITRRGGSTYYADSVKGRFTISRDNAKNTVYLQMNSLKPEETAVYYFNAVKGLSSWSYEYWGQGSQVTVSS", "polyreactivity (PSR sort gate)": "high polyreactivity"}
{"sequence": "QVQLVESGGGLVQAGGSLRLSCAASGSIQARYAMGWYRQAPGKERELVASITTSGDSTYYADSVKGRFTISRDNAKNTVYLQMNSLKPEDTAVSYCARRRWGWGYQHFPYYYWGQGTQVTVSS", "polyreactivity (PSR sort gate)": "high polyreactivity"}
{"sequence": "QVQLVESGGGLVQAGGSLRLSCAASGSIQTRNAMGWYRQAPGKERELVAAITGSGGRTYYADSVKGRFTISRDNAKNTVYLQMNSLKPEDTAVYYCATRYGREDYWGQVTQVTVSS", "polyreactivity (PSR sort gate)": "high polyreactivity"}
{"sequence": "QVQLVESGGGLVQAGGSLRLSCAASGSIQYYAMGWYRQEPGKERELVAAIRFSGGRTYYADSVKGRFTISRDNAKNTVYLQMNSLKPEETAVYYCAAYRSPRRSGAPSQGKFDYWGQVTQVTVSS", "polyreactivity (PSR sort gate)": "high polyreactivity"}
{"sequence": "QVQLVESGGGLVQAGGSLRLSCAASGSIRSYAMGWYRQSPGKERELVAAITRSGGSTYYADSVKGRFTISRDNAKNSVYLQMNSLKPEDTAVYYCAAEVRGKSRSTRVSYRYDYWGQGTQVTVSS", "polyreactivity (PSR sort gate)": "high polyreactivity"}
{"sequence": "QVQLVESGGGLVQAGGSLRLSCAASGSIRYYVKGWYRQAPGKERELVAGINWSGGSTYYADSVKGRFTISRDNAKNTVYLQMNSLKPEDTAVYYCAARFVGVRDGYYYWGQGTQVTLSS", "polyreactivity (PSR sort gate)": "high polyreactivity"}
{"sequence": "QVQLVESGGGLVQAGGSLRLSCAASGSISAPNAMGWYRQAPGKERALVATINSGGRTNYADSVKGRFTISRDNAKNTVYFQMNSLKPEDTAVYYCNTVVRGAYTYGDVSKYDYWGHGTQVTVSS", "polyreactivity (PSR sort gate)": "low polyreactivity"}
{"sequence": "QVQLVESGGGLVQAGGSLRLSCAASGSISDSYAMGWYRPAPGKERELVAAITSGDSTYYADSVKGRFTISRDNAKNTVYLQMNSLKPEDTAVYYCAKRVSRVLGYGFTDWSEYDYWGQGTQVTVSS", "polyreactivity (PSR sort gate)": "low polyreactivity"}
{"sequence": "QVQLVESGGGLVQAGGSLRLSCAASGSISDSYAMGWYRQAPGKERELVAAITSGDSTYYADSVKGRFTISRDNAKNTVYLQMNSLKPEDTAFYYCAKRVSRVRGYGFTDWSEYDYWGQGTQVTVSS", "polyreactivity (PSR sort gate)": "low polyreactivity"}
{"sequence": "QVQLVESGGGLVQAGGSLRLSCAASGSISFYYGIGWYRHAPGKERELVAALNNTGSTNYADSVKGRFTISRDNAKNTVYLQMNSLKPEDTAVYYCNAEQWQSSEYGEWSKRDYWGHGTQVTVSS", "polyreactivity (PSR sort gate)": "low polyreactivity"}
{"sequence": "QVQLVESGGGLVQAGGSLRLSCAASGSISGWYAMGWYRHAPGKERELVADISSIDGSTYYADSVKGRFTISRDNEKNTVYLQMNSLKPEDTSVYYCSADRGFYYEYDYWGQGTQVTVSS", "polyreactivity (PSR sort gate)": "low polyreactivity"}
{"sequence": "QVQLVESGGGLVQAGGSLRLSCAASGSISGYNAMGWYRQAPGKERELVAVITTDGSTNYADSVKGRFTISRDNAKNTVYLQMNSLKPEDTAVYYCNTDDGWRLLWEYDYWGQGTQVTVSS", "polyreactivity (PSR sort gate)": "low polyreactivity"}
{"sequence": "QVQLVESGGGLVQAGGSLRLSCAASGSISGYYAMGWNRQAPGKERELVASIRYTGARTYYADSVKGRFTISRDNAKNTVYLQMNSLKPEDTAVYYCAADVKRDRVWGGDYWGQGTQVTVSS", "polyreactivity (PSR sort gate)": "low polyreactivity"}
{"sequence": "QVQLVESGGGLVQAGGSLRLSCAASGSISGYYAMGWSRQAPGKERELVASIRYTGARTYYADSVKGRFTISRDNAKNTVYLQMNSLKPEDTAVYYCNAYTRYPFYFVTSKYDYWGQGTQVTVSS", "polyreactivity (PSR sort gate)": "low polyreactivity"}
{"sequence": "QVQLVESGGGLVQAGGSLRLSCAASGSISGYYAMGWYRQAPGKERELVASIRYTGARTYYADSVMGRFTISRDTAKNNVYLQMNSLKPEDTAVYYCAADVKRDRVWGGDYWGQGTQVTVSS", "polyreactivity (PSR sort gate)": "low polyreactivity"}
{"sequence": "QVQLVESGGGLVQAGGSLRLSCAASGSISIRNAMGWYRQAPGKERELVAAISRGGSTYYADSVKGRFTISRDNAKNTVYLQMNSLKPEDTAVYYCATDGGRYYRGREYAFKYYYWGQGTQVTVSS", "polyreactivity (PSR sort gate)": "high polyreactivity"}
{"sequence": "QVQLVESGGGLVQAGGSLRLSCAASGSISKINAMGWYRHAPGKERELVAAINTGDSTYYADSVKGRFTISRDNAKNTVYLQMNSLKPEDTAVYYCAAEGAPTGYDYWGQGTQVTVSS", "polyreactivity (PSR sort gate)": "low polyreactivity"}
{"sequence": "QVQLVESGGGLVQAGGSLRLSCAASGSISKINAMGWYRQAPGKERELVAAINTGDSTYYADSVKGRFTISRDNAKNTVYLQMNSLKPEDTAVYYCAAEGSPNGYDYWGQGTQVTVSS", "polyreactivity (PSR sort gate)": "low polyreactivity"}
{"sequence": "QVQLVESGGGLVQAGGSLRLSCAASGSISLYAMGWYRQAPGKERELVAAITKSGGSTYYADSVKGRFTISRDNAKNTVYLQMNSLKPEDTAVYYCNRGGGERKYNYWGQGTQVTGSS", "polyreactivity (PSR sort gate)": "high polyreactivity"}
{"sequence": "QVQLVESGGGLVQAGGSLRLSCAASGSISNYYGMGWYRQAPGKERELVAAITWGGGRTNYADSVKGRFTISRDNAKNTVYLQMNSLKPEDTAVYYCAKVSVTHRYGAGGDYWGQGTQVTVSS", "polyreactivity (PSR sort gate)": "low polyreactivity"}
{"sequence": "QVQLVESGGGLVQAGGSLRLSCAASGSISQGNAMGWYRQAPGKERELVAAIRWTSGRTYYADSVKGRFTISRDNAKNTVSLEINSLKPEDPAVYYCAAYYVYYTPTLFDRDYWGQGTQVTVSS", "polyreactivity (PSR sort gate)": "low polyreactivity"}
{"sequence": "QVQLVESGGGLVQAGGSLRLSCAASGSISRYYAMGWYRQAPRKERELVAAISSNGGSTYYADSVKGRFTISRDNAKNSVYLQMYSLKPEDTAVYYCNAFYVGYIRYWTNKLVDYWGQGTQVTVSS", "polyreactivity (PSR sort gate)": "high polyreactivity"}
{"sequence": "QVQLVESGGGLVQAGGSLRLSCAASGSISSFYAMGWYRQAPGKERELVAGITSGGSTNYADSVKGRFTISRDNAKNTVYLQMNSLKPEDTAVDYCAAVYKGAGTHFDVFVKEFDYWGQGTQVTVSS", "polyreactivity (PSR sort gate)": "low polyreactivity"}
{"sequence": "QVQLVESGGGLVQAGGSLRLSCAASGSISSKNAMGWYRQAPGKEREFVAVISGTGGSTYYADSVKGRFTISRDNAKNTVYLQMNSLKPEDTAFYYCAAAASSIVSYGYTWTYGYWGQGTQVTVSS", "polyreactivity (PSR sort gate)": "low polyreactivity"}
{"sequence": "QVQLVESGGGLVQAGGSLRLSCAASGSISSSYAMGWYRQAPGKERELVAAIDGSDGTTYYADSVKGRYTISRDNAKNTVYLQMNSLKPEDTAFYYCAAEPLGYHAGATRYDYWGQGTQVTVSS", "polyreactivity (PSR sort gate)": "high polyreactivity"}
{"sequence": "QVQLVESGGGLVQAGGSLRLSCAASGSISSVNAMGWYREAPGKERELVATISSGGSTYADSVKGRFTISRDNAKNTVYLQMNSLKPEDTAVYYCATYFVAYTFYYRWYRSYASFYYWGQGTQVTVSS", "polyreactivity (PSR sort gate)": "low polyreactivity"}
{"sequence": "QVQLVESGGGLVQAGGSLRLSCAASGSISSYYAMGWYRQATGKERELVAAISKSGGSTYYADSVKGRFTISRDNAKNTVYLQMNSLKPEDSAVYYCAARDYGWRYYRKYDYWGQGTQVTVSS", "polyreactivity (PSR sort gate)": "high polyreactivity"}
{"sequence": "QVQLVESGGGLVQAGGSLRLSCAASGSISTWYAMGWYRQATGKERELVAAINSGDSTYYADSVKGRFTISRDNAKNTVYLQMNSLKPEDTAVYYCAASSYSSKPFDYWGQGTQVTVSS", "polyreactivity (PSR sort gate)": "high polyreactivity"}
{"sequence": "QVQLVESGGGLVQAGGSLRLSCAASGSISTYYAMGWYRQAPGKERELVAAISKSGGSTYYADSVKGRFTISRDNAKYTVYLQMNSLKPEDTEVYYCAARYKGRAFWMDYWGQGTQVTVSS", "polyreactivity (PSR sort gate)": "high polyreactivity"}
{"sequence": "QVQLVESGGGLVQAGGSLRLSCAASGSISVWYVMGWYRQAPGKERELVAAITRSGGSTFYADSVKGRFTISRDNAKNTVYLQMNSLKPEDTAVYYCAADGGVAWGYGYWGQGTQVTVSS", "polyreactivity (PSR sort gate)": "low polyreactivity"}
{"sequence": "QVQLVESGGGLVQAGGSLRLSCAASGSISVYNAMGWYRQAPGTERELVAAISWSGGRTSYADSVKGRFTISRDNAKNTVYLQMNSLKPEDTAVYYCAADELTVLWDEDYWGQGTQVTVSS", "polyreactivity (PSR sort gate)": "low polyreactivity"}
{"sequence": "QVQLVESGGGLVQAGGSLRLSCAASGSISWLYAMGWYRQAPGKEREFVAAISESGDTYYADSVKGRFTISRDNAKNTVYLQMNSLKPEDTAVYYCAATRPDGVTYDYWGQGTQVTVSS", "polyreactivity (PSR sort gate)": "low polyreactivity"}
{"sequence": "QVQLVESGGGLVQAGGSLRLSCAASGSISWVYAMGWYRQAPGKERELVADITDSGDSTYYADSVKGRFTISRDNAKNTVYLQMNSLKPEDTAVYYCAADGWRHYYIYWPYNYWGQGTQVTVSS", "polyreactivity (PSR sort gate)": "low polyreactivity"}
{"sequence": "QVQLVESGGGLVQAGGSLRLSCAASGSISYPKAMGWYRQAPGKERELVAAINSGDRTNYADSVKGRFTISRDNAKNTVYLQMNSLKPEDTAVYYCARRRYFLWGGYGYWGQGTQVTVSS", "polyreactivity (PSR sort gate)": "low polyreactivity"}
